Measurements from patent US9579367B2.

Biological target: tissue plasminogen activator (tPA)

time to achieve 50% lysis of a plasma clot (turbidity, OD405nm): 10 fold
B1: Xa-K (FXa chemically modified, via a histidine residue in its active site, with a C-terminal lysine tethered by a PEG4 spacer) (enzyme)
light: ANSFLEEMKKGHLERECMEETCSYEEAREVFEDSDKTNEFWNKYKDGDQCETSPCQNQGKCKDGLGEYTCTCLEGFEGKNCELFTRKLCSLDNGDCDQFCHEEQNSVVCSCARGYTLADNGKACIPTGPYPCGKQTLER
heavy: IVGGQECKDGECPWQALLINEENEGFCGGTILSEFYILTAAHCLYQAKRFKVRVGDRNTEQEEGGEAVHEVEVVIKHNRFTKETYDFDIAVLRLKTPITFRMNVAPACLPERDWAESTLMTQKTGIVSGFGRTHEKGRQSTRLKMLEVPYVDRNSCKLSSSFIITQNMFCAGYDTKQEDACQGDSGGPHVTRFKDTYFVTGIVSWGEGCARKGKYGIYTKVTAFLKWIDRSMKTRGLPKAKSHAPEVITSSPLK
modifications: active-site histidine (position 276 in Table A, UniProt P00742 numbering) covalently linked to (D)Phe-Pro-Arg-CH2- carrying a thiol-maleimide-PEG4 spacer with a C-terminally tethered lysine (Lys-mPEG4)
